B2: DEAD-box helicase SrmB (enzyme, Escherichia coli, UniProt P21507 1-444, looked up)
chain: MTVTTFSELELDESLLEALQDKGFTRPTAIQAAAIPPALDGRDVLGSAPTGTGKTAAYLLPALQHLLDFPRKKSGPPRILILTPTRELAMQVSDHARELAKHTHLDIATITGGVAYMNHAEVFSENQDIVVATTGRLLQYIKEENFDCRAVETLILDEADRMLDMGFAQDIEHIAGETRWRKQTLLFSATLEGDAIQDFAERLLEDPVEVSANPSTRERKKIHQWYYRADDLEHKTALLVHLLKQPEATRSIVFVRKRERVHELANWLREAGINNCYLEGEMVQGKRNEAIKRLTEGRVNVLVATDVAARGIDIPDVSHVFNFDMPRSGDTYLHRIGRTARAGRKGTAISLVEAHDHLLLGKVGRYIEEPIKARVIDELRPKTRAPSEKQTGKPSKKVLAKRAEKKKAKEKEKPRVKKRHRDTKNIGKRRKPSGTGVPPQTTEE
notes: SrmB, DEAD-box RNA helicase, Escherichia coli; monomer of 50 kDa as printed; only residues 219-388 (C-terminal RecA-like domain) are resolved in the crystal; source: E. coli BL21(DE3), purified (ammonium sulfate precipitation, heparin column)
B3: CsdAΔ (truncated CsdA, residues 1 to 443) (domain or fragment, Escherichia coli, UniProt P0A9P6 1-443, looked up)
chain: MAEFETTFADLGLKAPILEALNDLGYEKPSPIQAECIPHLLNGRDVLGMAQTGSGKTAAFSLPLLQNLDPELKAPQILVLAPTRELAVQVAEAMTDFSKHMRGVNVVALYGGQRYDVQLRALRQGPQIVVGTPGRLLDHLKRGTLDLSKLSGLVLDEADEMLRMGFIEDVETIMAQIPEGHQTALFSATMPEAIRRITRRFMKEPQEVRIQSSVTTRPDISQSYWTVWGMRKNEALVRFLEAEDFDAAIIFVRTKNATLEVAEALERNGYNSAALNGDMNQALREQTLERLKDGRLDILIATDVAARGLDVERISLVVNYDIPMDSESYVHRIGRTGRAGRAGRALLFVENRERRLLRNIERTMKLTIPEVELPNAELLGKRRLEKFAAKVQQQLESSDLDQYRALLSKIQPTAEGEELDLETLAAALLKMAQGERTLIVPPD
notes: CsdA (DeaD), DEAD-box RNA helicase, Escherichia coli, residues 1 to 443, without the C-terminal extension; Vector pROEX-HT, gift of M. Dreyfus and T. Bizebard; also called CsdA (DeaD); source: E. coli BL21(DE3), purified (HisTrap FF)
B4: Regulator of ribonuclease activity A (RraA) (natural protein, Escherichia coli)
chain: MKYDTSELCDIYQEDVNVVEPLFSNFGGRASFGGQIITVKCFEDNGLLYDLLEQNGRGRVLVVDGGGSVRRALVDAELARLAVQNEWEGLVIYGAVRQVDDLEELDIGIQAMAAIPVGAAGEGIGESDVRVNFGGVTFFSGDHLYADNTGIILSEDPLDIE
notes: RraA, regulator of ribonuclease activity A, Escherichia coli; ring-shaped homotrimer (52 kDa); residues 2-159 modelled in the crystal; Trimer at 150 mM NaCl; about 100 kDa (hexamer) at 300 mM NaCl

Experiments:
[1] = molecular target: B4; assay: AUC; sedimentation velocity, absorbance at 280 nm, 20 °C; 150 mM NaCl, 50 mM HEPES pH 7.5, 10% glycerol; mixtures at 1:1 helicase:RraA trimer, about 10 μM; details: both partners purified
[2] = molecular target: B4; assay: SAXS; SrmB and RraA mixed at a 1:3 molar ratio; 150 mM NaCl, 20 mM HEPES pH 7.0, 5% glycerol, 2 mM DTT; 15 °C; 5 to 55 μM; ab initio envelope; details: both partners purified
[3] = molecular target: the molecule itself; assay: AUC; sedimentation velocity, 20 °C; 300 mM NaCl, 50 mM HEPES pH 7.5, 10% glycerol, 2 mM tris(2-carboxyethyl)phosphine; experiments with CsdAΔ; about 10 μM
[4] = molecular target: B2; assay: AUC; sedimentation velocity, absorbance at 280 nm, 20 °C; 150 mM NaCl, 50 mM HEPES pH 7.5, 10% glycerol; mixtures at 1:1 helicase:RraA trimer, about 10 μM; details: both partners purified
[5] = molecular target: T1, DEAD-box helicase DbpA (Escherichia coli, UniProt P21693 1-457); assay: as above; details: both partners purified
T1 construct: DbpA, DEAD-box RNA helicase, Escherichia coli; monomer of 49 kDa as printed; source: E. coli BL21(DE3), purified (ammonium sulfate precipitation, heparin column)
T1 sequence (looked up): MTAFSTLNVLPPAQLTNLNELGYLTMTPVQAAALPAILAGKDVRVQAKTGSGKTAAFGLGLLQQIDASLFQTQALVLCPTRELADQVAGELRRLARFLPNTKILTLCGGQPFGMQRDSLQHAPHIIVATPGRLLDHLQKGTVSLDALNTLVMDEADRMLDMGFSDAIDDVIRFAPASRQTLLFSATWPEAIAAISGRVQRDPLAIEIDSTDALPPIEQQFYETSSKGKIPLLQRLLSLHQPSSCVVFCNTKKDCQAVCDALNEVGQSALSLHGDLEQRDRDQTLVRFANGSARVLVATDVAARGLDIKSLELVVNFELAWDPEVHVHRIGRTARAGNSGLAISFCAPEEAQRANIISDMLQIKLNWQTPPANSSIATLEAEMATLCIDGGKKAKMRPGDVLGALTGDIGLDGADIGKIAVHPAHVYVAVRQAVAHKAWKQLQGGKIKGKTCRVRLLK

[6] = molecular target: the molecule itself; assay: as above
[7] = molecular target: the molecule itself; assay: crystal structure; RraA and RhlB(398-421) mixed at 1:20; 74.8 μM RraA, 1.48 mM peptide, 423 mM NaCl, 99 mM (NH4)2SO4; hanging drop, 16 °C; 100 mM sodium citrate pH 5.4, 32% methylpentanediol, 200 mM ammonium acetate; 2.8 Å
[8] = molecular target: T2, DEAD-box helicase RhlE (Escherichia coli, UniProt P25888 1-454); assay: native gel or EMSA; 5% native polyacrylamide gel, Tris glycine running buffer with 1 mM DTT, 4 °C; helicase 10 μM and RraA 30 μM (2.5 and 7.5 μM for the mutants of Figure 3); bands of the complex cut out and analysed by SDS-PAGE; details: both partners purified
T2 construct: RhlE, DEAD-box RNA helicase, Escherichia coli; source: E. coli BL21(DE3), purified (ammonium sulfate precipitation, heparin column)
T2 sequence (looked up): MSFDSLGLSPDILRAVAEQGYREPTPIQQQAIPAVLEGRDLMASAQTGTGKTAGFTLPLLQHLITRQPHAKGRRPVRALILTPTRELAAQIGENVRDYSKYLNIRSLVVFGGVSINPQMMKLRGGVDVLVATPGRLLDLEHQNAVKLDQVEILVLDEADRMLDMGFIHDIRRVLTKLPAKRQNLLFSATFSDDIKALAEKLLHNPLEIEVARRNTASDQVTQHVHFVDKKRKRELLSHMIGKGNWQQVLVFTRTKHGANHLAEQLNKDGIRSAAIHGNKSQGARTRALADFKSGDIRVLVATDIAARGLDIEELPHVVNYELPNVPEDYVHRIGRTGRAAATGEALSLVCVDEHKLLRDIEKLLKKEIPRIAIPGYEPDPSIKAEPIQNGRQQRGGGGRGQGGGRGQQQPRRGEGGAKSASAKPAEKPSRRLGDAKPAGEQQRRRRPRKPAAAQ

[9] = molecular target: B3; assay: as above; details: both partners purified

B1: DEAD-box helicase RhlB (enzyme, Escherichia coli, UniProt P0A8J8 1-421, looked up)
chain: MSKTHLTEQKFSDFALHPKVVEALEKKGFHNCTPIQALALPLTLAGRDVAGQAQTGTGKTMAFLTSTFHYLLSHPAIADRKVNQPRALIMAPTRELAVQIHADAEPLAEATGLKLGLAYGGDGYDKQLKVLESGVDILIGTTGRLIDYAKQNHINLGAIQVVVLDEADRMYDLGFIKDIRWLFRRMPPANQRLNMLFSATLSYRVRELAFEQMNNAEYIEVEPEQKTGHRIKEELFYPSNEEKMRLLQTLIEEEWPDRAIIFANTKHRCEEIWGHLAADGHRVGLLTGDVAQKKRLRILDEFTRGDLDILVATDVAARGLHIPAVTHVFNYDLPDDCEDYVHRIGRTGRAGASGHSISLACEEYALNLPAIETYIGHSIPVSKYNPDALMTDLPKPLRLTRPRTGNGPRRTGAPRNRRRSG
notes: RhlB, DEAD-box RNA helicase, Escherichia coli; monomer of 47 kDa as printed; The printed mass of 47 kDa fits the whole protein; 'full-length RhlB' is said only of the crystallisation trials
With B1 the “stoichiometry N” value [1] was 1 helicase monomer per RraA trimer.

For B2, the “stoichiometry N” value [2] was 1 SrmB per RraA trimer and the “stoichiometry N” value [1] was 1 helicase monomer per RraA trimer.

In the case of B3, the “stoichiometry N” value [3] is reported as 2.

In the case of B4, the Kd [4] is reported as less than 10 µM, the binding result [5] is reported as “binds” and the “stoichiometry N” value [6] is reported as 3. The “stoichiometry N” value [7] was 6, the binding result [8] was “binds” and the binding result [9] was “binds”.
